Test results taken from article PMC4523205.
Read-outs that look alike come from different tables or passages of the source.

Columns and labels:
[1] = molecular target: gp41_(596-606) peptide with Cys604 substituted by Ala, N-terminal biotin (HIV-1) (UniProt P04578); assay: SPR; BIAcore 4000; biotinylated 11mer and its alanine-substituted variants on a streptavidin chip; 7B2 (Fab by the legend) at 20 μg/ml; responses of the irrelevant antibody Synagis subtracted
[2] = molecular target: Env of HIV-1 SF162.B, on virions (HIV-1) (UniProt P19550)
[3] = molecular target: Env of HIV-1 BaL.B, on virions (HIV-1)
[4] = molecular target: Env of SHIV-BaL, on virions (HIV-1 (env of SHIV-BaL))
[5] = molecular target: rhesus macaque FcγR3A-1 (rhesus macaque) (UniProt A3RFZ7); assay: SPR; mAb binding to recombinant purified Fc receptors; who was immobilised is not stated
[6] = molecular target: human FcγRI (CD64) (human) (UniProt P12314); assay: as above
[7] = molecular target: human FcγRIIIa/CD16 (human) (UniProt O75015); assay: as above
[8] = molecular target: rhesus macaque FcγR3A-3 (rhesus macaque) (UniProt A3RFZ7); assay: as above
[9] = molecular target: rhesus macaque FcγR3A-1 (rhesus macaque) (UniProt A3RFZ7); assay: SPR
[10] = molecular target: 7B2 Fab; assay: SPR; conditions: for response: sensorgram read at ~140 seconds after starting injection of 7B2 Fab, parent: est. 1400, read off a plot
[11] = binding response at saturation (~140 seconds after starting injection of 7B2 Fab)

Sequence of rhesus macaque FcγR3A-1 (rhesus macaque) (A3RFZ7 21-206): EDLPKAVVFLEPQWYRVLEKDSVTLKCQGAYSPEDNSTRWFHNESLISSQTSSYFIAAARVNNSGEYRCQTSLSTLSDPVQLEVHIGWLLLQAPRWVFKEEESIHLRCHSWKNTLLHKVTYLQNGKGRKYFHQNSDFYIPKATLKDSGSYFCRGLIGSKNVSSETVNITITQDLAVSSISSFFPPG
Sequence of rhesus macaque FcγR3A-3 (rhesus macaque) (A3RFZ7 21-206): as above
Sequence of human FcγRI (CD64) (human) (P12314 16-292): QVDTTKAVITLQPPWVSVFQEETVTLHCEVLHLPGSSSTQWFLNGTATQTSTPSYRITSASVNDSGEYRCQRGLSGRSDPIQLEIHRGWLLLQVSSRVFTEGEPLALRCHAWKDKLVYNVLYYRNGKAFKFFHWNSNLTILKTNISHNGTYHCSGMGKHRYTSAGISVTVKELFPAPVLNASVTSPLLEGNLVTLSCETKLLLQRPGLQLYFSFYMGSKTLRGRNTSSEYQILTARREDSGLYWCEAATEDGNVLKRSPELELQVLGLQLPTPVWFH

| Substance | ratio to parent [10] | ratio to parent [10, 11] | also measured |
| --- | --- | --- | --- |
| 7B2 Fab | – | – | off-rate relative to the wild-type peptide (fold) [1]: 2.8 fold |
| 7B2 IgG1_AAA (antibody) | – | – | neutralisation of HIV-1 SF162 in macrophages, IC90 [2]: 0.2 not printed; neutralisation of HIV-1 BaL in peripheral blood monocytes differentiated into macrophages, ID50 [3]: 0.05 µg/mL; neutralisation of SHIV-BaL in the TZM-bl assay, IC50 [4]: > 50 µg/mL; Kd [5]: 68.7 nM; Kd [6]: 49 nM; Kd [7]: 1100 nM; Kd [8]: 147 nM |
| 7B2 IgG1_AAA | – | – | Kd [9]: 92.9 nM |
| gp41_(596-606) peptide, wild type, N-terminal biotin T606A | 1.11 | 0.89 | – |
| A32 IgG1_AAA | – | – | Kd [9]: 46.2 nM |
| gp41_(596-606) peptide, wild type, N-terminal biotin L602A | 4.65 | 0.38 | – |
| gp41_(596-606) peptide, wild type, N-terminal biotin G600A | 0 | 0 | – |
| gp41_(596-606) peptide, wild type, N-terminal biotin G597A | 5.15 | 0.6 | – |
| gp41_(596-606) peptide, wild type, N-terminal biotin W596A | 8.65 | 0.83 | – |
| gp41_(596-606) peptide, wild type, N-terminal biotin C598A | 25 | 0.16 | response [10]: 200 RU |
| A32 IgG1_AAA (antibody) | – | – | Kd [5]: 50 nM; koff [5]: 0.0094 s⁻¹; kon [5]: 190000 M⁻¹ s⁻¹; Kd [8]: 56 nM; koff [8]: 0.0061 s⁻¹; kon [8]: 110000 M⁻¹ s⁻¹ |
| gp41_(596-606) peptide, wild type, N-terminal biotin I603A | 31.7 | 0.32 | response [10]: 430 RU |
| gp41_(596-606) peptide, wild type, N-terminal biotin T605A | 0.79 | 0.99 | – |
| gp41_(596-606) peptide, wild type, N-terminal biotin K601A | 0.59 | 1.24 | – |
| gp41_(596-606) peptide, wild type, N-terminal biotin S599A | 21.4 | 0.64 | response [10]: 880 RU |
